Key:
[1] = target: V5 epitope-tagged soluble ZIKV E, covalently stabilised dimer carrying A264C (sE-cvD) (Zika virus (strain ArD158095)); assay: non-reducing SDS-PAGE
[2] = target: ZIKV full-length E protein carrying A264C (covalent dimer), in virus-like particles (VLP-cvD) (Zika virus (strain PE243)); assay: non-reducing SDS-PAGE with western blot

| Substance | stoichiometry N [1] | stoichiometry N [2] |
| --- | --- | --- |
| V5 epitope-tagged soluble ZIKV E, covalently stabilised dimer carrying A264C (sE-cvD) (domain or fragment) | 2 |  |
| ZIKV full-length E protein carrying A264C (covalent dimer), in virus-like particles (VLP-cvD) (natural protein) |  | 2 |
